In the supplement of paper PMC10126150:
± gives the standard deviation of the averaged measurements.

System: ATP
Test: switch fluorescence ratio, 500 uM ATP over buffer (Cy3 cluster intensity, sum of 5 cycles each) (fold (ratio)); higher = stronger signal-on switching upon ATP binding; sequences stand for … in TCGTCGGCAGCGTCAGATGTGTATAAGAGACAGTTTTTTTTTTTTTTTTTTTTTTTTT…TC
Conditions: aptamer strand: ATP DNA aptamer (quencher-CACCTGGGGGAGTATTGCGGAGGAAGG + anchor), 100 nM annealed; ATP concentration: 500 uM
Procedure, shortened: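 For every switch-domain sequence, the fluorescence ratio is the mean of per-cluster values, each being summed target-cycle Cy3 intensity over summed buffer-cycle Cy3 intensity. Clusters outside 100-1000 RFU were excluded. On a modified Illumina MiSeq flow-cell, the Cy3-labelled switching-strand clusters were annealed to 100 nM quencher-labelled ATP aptamer, imaged in selection buffer and then after 15 min with 500 uM ATP at 22 °C. Five such cycles were run, with NaOH stripping and re-annealing between them.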
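Also: ATP exposure 15 min at 22 °C before imaging.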

## TATGATTCGG
  switch fluorescence ratio: 0.992 ± 0.057

## TATGATTGCG
  switch fluorescence ratio: 1.01 ± 0.04

## TATGCAGACT
  switch fluorescence ratio: 0.956 ± 0.092

## TATGCAGCG
  switch fluorescence ratio: 1.001 ± 0.0024

## TATGCAGTTT
  switch fluorescence ratio: 0.968 ± 0.026

## TATGCATATG
  switch fluorescence ratio: 1.02 ± 0.048

## TATGCGATTG
  switch fluorescence ratio: 1.04 ± 0.019

## TATGCGCCGT
  switch fluorescence ratio: 0.984 ± 0.026

## TATGCGTTGC
  switch fluorescence ratio: 1.02 ± 0.023

## TATGCTAGGT
  switch fluorescence ratio: 0.983 ± 0.012

## TATGCTGGAG
  switch fluorescence ratio: 1.02 ± 0.0047

## TATGGAAGTA
  switch fluorescence ratio: 1.01 ± 0.033

## TATGGAGAGG
  switch fluorescence ratio: 0.984 ± 0.015

## TATGGAGTTA
  switch fluorescence ratio: 0.986 ± 0.027

## TATGGATCGC
  switch fluorescence ratio: 1.01 ± 0.026

## TATGGATTTT
  switch fluorescence ratio: 0.987 ± 0.016

## TATGGCGGGT
  switch fluorescence ratio: 1 ± 0.014

## TATGGGCAGG
  switch fluorescence ratio: 1.04 ± 0.022

## TATGGGGTAG
  switch fluorescence ratio: 1 ± 0.013

## TATGGGTAGC
  switch fluorescence ratio: 0.986 ± 0.019

## TATGGTATGC
  switch fluorescence ratio: 1.0138 ± 0.00069

## TATGGTGACG
  switch fluorescence ratio: 1 ± 0.12

## TATGGTGTGG
  switch fluorescence ratio: 0.967 ± 0.024

## TATGGTTACG
  switch fluorescence ratio: 0.9997 ± 0.0022

## TATGGTTTAG
  switch fluorescence ratio: 1.02 ± 0.015

## TATGTAATTG
  switch fluorescence ratio: 0.965 ± 0.058

## TATGTAATTT
  switch fluorescence ratio: 0.9932 ± 0.0092

## TATGTACCTT
  switch fluorescence ratio: 1.179 ± 0.0091

## TATGTACGTT
  switch fluorescence ratio: 1.04 ± 0.051

## TATGTAGCCG
  switch fluorescence ratio: 1.03 ± 0.098

## TATGTATAGG
  switch fluorescence ratio: 1.03 ± 0.049

## TATGTATCCG
  switch fluorescence ratio: 1.03 ± 0.062

## TATGTATGGA
  switch fluorescence ratio: 0.989 ± 0.015

## TATGTCCCGT
  switch fluorescence ratio: 0.974 ± 0.029

## TATGTGATGT
  switch fluorescence ratio: 0.981 ± 0.032

## TATGTGGGTG
  switch fluorescence ratio: 1.01 ± 0.035

## TATGTTCGAG
  switch fluorescence ratio: 0.968 ± 0.033

## TATGTTGGGG
  switch fluorescence ratio: 0.957 ± 0.018

## TATGTTGTCG
  switch fluorescence ratio: 1.08 ± 0.12

## TATGTTTTGA
  switch fluorescence ratio: 0.994 ± 0.033

## TATGTTTTTA
  switch fluorescence ratio: 1.02 ± 0.019

## TATTAAACCG
  switch fluorescence ratio: 1.06 ± 0.013

## TATTAACCTG
  switch fluorescence ratio: 1.03 ± 0.022

## TATTAACGAG
  switch fluorescence ratio: 0.995 ± 0.032

## TATTAAGTTT
  switch fluorescence ratio: 1.02 ± 0.039

## TATTACACGT
  switch fluorescence ratio: 1.021 ± 0.0046

## TATTACCCAA
  switch fluorescence ratio: 1.05 ± 0.025

## TATTACGAGT
  switch fluorescence ratio: 1.02 ± 0.013

## TATTAGAAGC
  switch fluorescence ratio: 1.01 ± 0.046

## TATTAGACGA
  switch fluorescence ratio: 0.963 ± 0.015

## TATTAGCAGC
  switch fluorescence ratio: 1.03 ± 0.012

## TATTAGGTGG
  switch fluorescence ratio: 1.1 ± 0.059

## TATTAGTAAG
  switch fluorescence ratio: 0.985 ± 0.034

## TATTATAATA
  switch fluorescence ratio: 0.98 ± 0.035

## TATTATAGGA
  switch fluorescence ratio: 0.982 ± 0.017

## TATTATATTA
  switch fluorescence ratio: 1.02 ± 0.019

## TATTATCTTT
  switch fluorescence ratio: 1.01 ± 0.024

## TATTATGAGA
  switch fluorescence ratio: 0.983 ± 0.026

## TATTATGTAT
  switch fluorescence ratio: 0.982 ± 0.031

## TATTATGTGG
  switch fluorescence ratio: 0.961 ± 0.01

## TATTATTCTG
  switch fluorescence ratio: 0.986 ± 0.023

## TATTATTTTT
  switch fluorescence ratio: 0.998 ± 0.026

## TATTCACAAG
  switch fluorescence ratio: 1.024 ± 0.0027

## TATTCATCCA
  switch fluorescence ratio: 1.01 ± 0.02

## TATTCATTAA
  switch fluorescence ratio: 0.969 ± 0.011

## TATTCATTGT
  switch fluorescence ratio: 1.005 ± 0.0074

## TATTCCGGCC
  switch fluorescence ratio: 1.05 ± 0.058

## TATTCCTCTG
  switch fluorescence ratio: 2.03 ± 0.26

## TATTCGAGGC
  switch fluorescence ratio: 1.06 ± 0.052

## TATTCGCATC
  switch fluorescence ratio: 2.12 ± 0.41

## TATTCTCATG
  switch fluorescence ratio: 1 ± 0.047

## TATTCTTGGG
  switch fluorescence ratio: 1 ± 0.028

## TATTGACGCC
  switch fluorescence ratio: 1.09 ± 0.033

## TATTGACGGT
  switch fluorescence ratio: 1.02 ± 0.022

## TATTGACTAG
  switch fluorescence ratio: 1.03 ± 0.059

## TATTGAGAGA
  switch fluorescence ratio: 1.02 ± 0.053

## TATTGAGCTG
  switch fluorescence ratio: 0.9775 ± 0.0087

## TATTGAGTAA
  switch fluorescence ratio: 1.02 ± 0.02

## TATTGATTTG
  switch fluorescence ratio: 1.02 ± 0.019

## TATTGCATTA
  switch fluorescence ratio: 1.03 ± 0.013

## TATTGCGCTC
  switch fluorescence ratio: 1.09 ± 0.065

## TATTGCGGTC
  switch fluorescence ratio: 1.005 ± 0.0018

## TATTGCGTGG
  switch fluorescence ratio: 0.9836 ± 0.0073

## TATTGCTAGG
  switch fluorescence ratio: 0.9582 ± 0.0063

## TATTGCTTCA
  switch fluorescence ratio: 1.03 ± 0.016

## TATTGGCGTC
  switch fluorescence ratio: 0.985 ± 0.029

## TATTGGGGGC
  switch fluorescence ratio: 1 ± 0.018

## TATTGGGTGG
  switch fluorescence ratio: 0.9919 ± 0.0053

## TATTGGTCTA
  switch fluorescence ratio: 1.04 ± 0.087

## TATTGGTGGT
  switch fluorescence ratio: 0.995 ± 0.027

## TATTGGTGTT
  switch fluorescence ratio: 0.99 ± 0.015

## TATTGTAATT
  switch fluorescence ratio: 1.01 ± 0.014

## TATTGTATTC
  switch fluorescence ratio: 1 ± 0.013

## TATTGTGGGT
  switch fluorescence ratio: 0.98 ± 0.035

## TATTGTTTCG
  switch fluorescence ratio: 1.02 ± 0.029

## TATTTAAAAA
  switch fluorescence ratio: 1.01 ± 0.035

## TATTTAAGTG
  switch fluorescence ratio: 1.039 ± 0.0092

## TATTTACATT
  switch fluorescence ratio: 1.03 ± 0.048

## TATTTAGATG
  switch fluorescence ratio: 1.01 ± 0.018

## TATTTAGCCC
  switch fluorescence ratio: 1.047 ± 0.0069

## TATTTAGCGT
  switch fluorescence ratio: 1.01 ± 0.067

## TATTTCATTG
  switch fluorescence ratio: 1.02 ± 0.03

## TATTTCCCGT
  switch fluorescence ratio: 1.06 ± 0.065

## TATTTCGATA
  switch fluorescence ratio: 1.029 ± 0.0047

## TATTTCGGGG
  switch fluorescence ratio: 1.02 ± 0.023

## TATTTCTTGG
  switch fluorescence ratio: 0.968 ± 0.014

## TATTTGAAAG
  switch fluorescence ratio: 1 ± 0.04

## TATTTGAAGG
  switch fluorescence ratio: 0.986 ± 0.053

## TATTTGGACT
  switch fluorescence ratio: 1.04 ± 0.046

## TATTTGGGAC
  switch fluorescence ratio: 1.02 ± 0.025

## TATTTGGGTT
  switch fluorescence ratio: 1.07 ± 0.082

## TATTTGTCAT
  switch fluorescence ratio: 1.02 ± 0.013

## TATTTGTGCG
  switch fluorescence ratio: 0.988 ± 0.035

## TATTTGTTGC
  switch fluorescence ratio: 1.03 ± 0.041

## TATTTGTTTG
  switch fluorescence ratio: 0.984 ± 0.03

## TATTTTAAGT
  switch fluorescence ratio: 0.993 ± 0.038

## TATTTTACAG
  switch fluorescence ratio: 1.02 ± 0.02

## TATTTTAGTG
  switch fluorescence ratio: 0.996 ± 0.025

## TATTTTGAAA
  switch fluorescence ratio: 0.992 ± 0.027

## TATTTTGGTC
  switch fluorescence ratio: 1.025 ± 0.0078

## TATTTTTAAA
  switch fluorescence ratio: 1.02 ± 0.028

## TATTTTTCAT
  switch fluorescence ratio: 1.01 ± 0.052

## TATTTTTT
  switch fluorescence ratio: 1.02 ± 0.027

## TATTTTTTAG
  switch fluorescence ratio: 0.96 ± 0.013

## TCAAAAAGTG
  switch fluorescence ratio: 0.989 ± 0.034

## TCAAAAATAT
  switch fluorescence ratio: 0.987 ± 0.025

## TCAAAATTTC
  switch fluorescence ratio: 1.01 ± 0.0072

## TCAAAATTTT
  switch fluorescence ratio: 1.01 ± 0.012

## TCAAACAGCG
  switch fluorescence ratio: 0.9861 ± 0.00055

## TCAAAGCGGA
  switch fluorescence ratio: 1.01 ± 0.046

## TCAAATACG
  switch fluorescence ratio: 1.057 ± 0.009

## TCAAATTATG
  switch fluorescence ratio: 1.01 ± 0.035

## TCAAATTGCC
  switch fluorescence ratio: 0.982 ± 0.016

## TCAAATTTTG
  switch fluorescence ratio: 0.999 ± 0.021

## TCAACCTTTT
  switch fluorescence ratio: 1.04 ± 0.052

## TCAACGAGTA
  switch fluorescence ratio: 1.029 ± 0.0061

## TCAACGGGGG
  switch fluorescence ratio: 1.08 ± 0.17

## TCAACGGTCT
  switch fluorescence ratio: 0.9955 ± 0.0048

## TCAAGAGGCG
  switch fluorescence ratio: 1.019 ± 0.0029

## TCAAGGCAA
  switch fluorescence ratio: 1.8 ± 0.037

## TCAAGGGGGA
  switch fluorescence ratio: 1 ± 0.035

## TCAAGGGGTT
  switch fluorescence ratio: 1.1 ± 0.15

## TCAAGGGTTC
  switch fluorescence ratio: 1.03 ± 0.064

## TCAAGTAGAG
  switch fluorescence ratio: 0.99 ± 0.011

## TCAAGTATCT
  switch fluorescence ratio: 1.02 ± 0.041

## TCAAGTATGT
  switch fluorescence ratio: 1.006 ± 0.01

## TCAAGTTACA
  switch fluorescence ratio: 1.078 ± 0.0041

## TCAAGTTATT
  switch fluorescence ratio: 0.973 ± 0.0099

## TCAAGTTTG
  switch fluorescence ratio: 1.011 ± 0.0069

## TCAATACTTC
  switch fluorescence ratio: 1.88 ± 0.19

## TCAATAGACC
  switch fluorescence ratio: 1.05 ± 0.011

## TCAATAGTAC
  switch fluorescence ratio: 1.084 ± 0.0024

## TCAATCGGGT
  switch fluorescence ratio: 0.995 ± 0.053

## TCAATGGCTA
  switch fluorescence ratio: 1.02 ± 0.018

## TCAATGTTTG
  switch fluorescence ratio: 1.008 ± 0.0069

## TCAATTCAGG
  switch fluorescence ratio: 1.01 ± 0.016

## TCAATTTAGG
  switch fluorescence ratio: 0.966 ± 0.014
